From PMC3022821, “Glycogen synthase kinase-3β inactivation inhibits tumor necrosis factor-α production in microglia by modulating nuclear factor κB and MLK3/JNK signaling cascades” (Journal of Neuroinflammation, 2010)

Biological target: the molecule itself
Assay: immunoprecipitation and non-reducing SDS-PAGE; BV-2 lysates, IP with goat anti-MLK3; precipitates separated by SDS-PAGE without DTT; blot with rabbit anti-MLK3; disulfide-linked dimer; cells with or without LPS (100 ng/ml)

B1: Mixed lineage kinase 3 (MLK3) (natural protein, mouse (endogenous in BV-2), UniProt Q80XI6 1-850, looked up)
chain: MEPLKNLFLKSPLGSWNGSGSGGGGGTGGVRPEGSPKATAAYANPVWTALFDYEPNGQDELALRKGDRVEVLSRDAAISGDEGWWAGQVGGQVGIFPSNYVSRGGGPPPCEVASFQELRLEEVIGIGGFGKVYRGSWRGELVAVKAARQDPDEDISVTAESVRQEARLFAMLAHPNIIALKAVCLEEPNLCLVMEYAAGGPLSRALAGRRVPPHVLVNWAVQIARGMHYLHCEALVPVIHRDLKSNNILLLQPIEGDDMEHKTLKITDFGLAREWHKTTQMSAAGTYAWMAPEVIKASTFSKGSDVWSFGVLLWELLTGEVPYRGIDCLAVAYGVAVNKLTLPIPSTCPEPFAQLMADCWAQDPHRRPDFASILQQLEALEAQVLREMPRDSFHSMQEGWKREIQGLFDELRAKEKELLSREEELTRAAREQRSQAEQLRRREHLLAQWELEVFERELTLLLQQVDRERPHVRRRRGTFKRSKLRARDGGERISMPLDFKHRITVQASPGLDRRRNVFEVGAGDSPTFPRFRAIQLEPTESGQTWGRQSPRRLEDSSNGERRACWAWGPSSPKPGEAQNGRRRSRMDEATWYLDSDDSSPLGSPSTPPALNGNPPRPSPEPEEPRRAGPTERGNSSGTPKLIQRALLRGTALLASLGLGRDLQPPGGLSRERGESPTAPPPAQMPSPCPPELPSTPLIRLSQTTPDAHSSPTPGPLLLDLGVPSGQPSAKSPRREETRGRTVSPPPGISRSAPGTPGTPRSPPLGLISRPRPSPLRSRIDPWSFVSAGPRPSPLPSPQPAPRRAPWTLFPDSDPFWDSPPANPFRGGSQDCRTQTKDMGAQAPWAPEAGP
notes: Mixed lineage kinase 3 (MLK3), endogenous in murine BV-2 microglial cells; monomer of 105 kDa on SDS-PAGE; Precipitated with a goat anti-MLK3 antibody (Santa Cruz Biotechnology); the dimer is disulfide-linked and is seen only without DTT; source: endogenous, BV-2 cell lysate
stoichiometry N: 2
